Results published in IntAct's records for PubMed 16924104.

B1: Polyunsaturated fatty acid 5-lipoxygenase (Homo sapiens), P09917 (parent)
chain: MPSYTVTVATGSQWFAGTDDYIYLSLVGSAGCSEKHLLDKPFYNDFERGAVDSYDVTVDEELGEIQLVRIEKRKYWLNDDWYLKYITLKTPHGDYIEFPCYRWITGDVEVVLRDGRAKLARDDQIHILKQHRRKELETRQKQYRWMEWNPGFPLSIDAKCHKDLPRDIQFDSEKGVDFVLNYSKAMENLFINRFMHMFQSSWNDFADFEKIFVKISNTISERVMNHWQEDLMFGYQFLNGCNPVLIRRCTELPEKLPVTTEMVECSLERQLSLEQEVQQGNIFIVDFELLDGIDANKTDPCTLQFLAAPICLLYKNLANKIVPIAIQLNQIPGDENPIFLPSDAKYDWLLAKIWVRSSDFHVHQTITHLLRTHLVSEVFGIAMYRQLPAVHPIFKLLVAHVRFTIAINTKAREQLICECGLFDKANATGGGGHVQMVQRAMKDLTYASLCFPEAIKARGMESKEDIPYYFYRDDGLLVWEAIRTFTAEVVDIYYEGDQVVEEDPELQDFVNDVYVYGMRGRKSSGFPKSVKSREQLSEYLTVVIFTASAQHAAVNFGQYDWCSWIPNAPPTMRAPPPTAKGVVTIEQIVDTLPDRGRSCWHLGAVWALSQFQENELFLGMYPEEHFIEKPVKEAMARFRKNLEAIVSVIAERNKKKQLPYYYLSPDRIPNSVAI
partner: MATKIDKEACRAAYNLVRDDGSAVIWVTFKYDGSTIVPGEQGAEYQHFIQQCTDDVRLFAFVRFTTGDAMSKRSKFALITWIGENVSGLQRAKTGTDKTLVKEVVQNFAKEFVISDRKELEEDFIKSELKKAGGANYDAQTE

Variants of: B1
Conditions: with cotl1_human COTL1, Q14019

| effect of a mutation on the interaction | Variant |
| --- | --- |
| disrupting interaction strength | W14A;W76A;W103A |
